Measurements published in patent US20180022780A1 (Bayer, published 2018).
Bridge positions count the residues as written; N and C are the ends. Square brackets hold non-standard residues; d marks the D form. Ends that are not written are not given here. * marks the point of attachment. Palmitoyl = CCCCCCCCCCCCCCCC(=O)*; NMeI = CC[C@H](C)[C@H](NC)C(=O)O; Orn = NCCC[C@H](N)C(=O)O; Dap = NC[C@H](N)C(=O)O

Experiments:
[1] = target: CLR fused to EYFP with RAMP2 fused to ECFP; assay: cell-based or functional assay
[2] = target: human adrenomedullin-receptor (human, UniProt Q16602 23-461); assay: cell-based or functional assay
Chain of human adrenomedullin-receptor (Q16602 23-461): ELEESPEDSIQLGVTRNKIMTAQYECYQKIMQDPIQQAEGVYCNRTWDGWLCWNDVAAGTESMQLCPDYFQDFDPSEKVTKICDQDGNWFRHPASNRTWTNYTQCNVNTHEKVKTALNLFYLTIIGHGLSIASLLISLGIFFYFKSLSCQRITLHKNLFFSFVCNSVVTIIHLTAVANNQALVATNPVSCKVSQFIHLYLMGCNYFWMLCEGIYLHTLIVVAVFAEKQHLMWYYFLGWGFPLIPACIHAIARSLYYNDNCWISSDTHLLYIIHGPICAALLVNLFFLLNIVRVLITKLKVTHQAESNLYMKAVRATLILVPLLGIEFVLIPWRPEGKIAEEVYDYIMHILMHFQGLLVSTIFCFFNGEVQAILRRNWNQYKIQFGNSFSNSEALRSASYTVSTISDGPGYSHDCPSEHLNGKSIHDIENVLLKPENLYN

Chain of CLR fused to EYFP with RAMP2 fused to ECFP (Q16602 whole entry, chain 1 of 2, the tested form may be a part): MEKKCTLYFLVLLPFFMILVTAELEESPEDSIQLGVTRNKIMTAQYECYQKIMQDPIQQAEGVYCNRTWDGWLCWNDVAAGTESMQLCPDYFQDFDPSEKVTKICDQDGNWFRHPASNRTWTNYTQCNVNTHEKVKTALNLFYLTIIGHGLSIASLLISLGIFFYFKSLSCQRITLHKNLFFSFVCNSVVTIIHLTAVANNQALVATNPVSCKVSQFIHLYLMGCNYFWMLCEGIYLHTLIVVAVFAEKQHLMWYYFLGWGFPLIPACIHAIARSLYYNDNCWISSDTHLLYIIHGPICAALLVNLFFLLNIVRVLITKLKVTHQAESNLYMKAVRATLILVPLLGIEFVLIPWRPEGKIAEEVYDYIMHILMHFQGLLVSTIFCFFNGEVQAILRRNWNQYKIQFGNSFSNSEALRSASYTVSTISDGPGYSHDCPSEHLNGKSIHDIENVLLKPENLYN
Chain of CLR fused to EYFP with RAMP2 fused to ECFP (O60895 whole entry, chain 2 of 2, further chain, the tested form may be a part): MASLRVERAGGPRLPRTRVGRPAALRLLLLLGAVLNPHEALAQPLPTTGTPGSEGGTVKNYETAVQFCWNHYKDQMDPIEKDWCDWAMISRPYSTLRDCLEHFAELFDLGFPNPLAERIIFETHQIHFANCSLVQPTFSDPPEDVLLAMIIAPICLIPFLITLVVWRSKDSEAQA

Binder	EC50 [nM], cAMP assay (CRE-luciferase luminescence, HEK293 cells) [1] [nM]	EC50 [nM], aequorin luminescence of CHO adrenomedullin-receptor reporter cells [2] [nM]
GGERFGT[Orn]TVQKLAHQIYQFTDKDKDNVAPRSKISPQGY-NH2 (lactam 3-8) [[G^14, (E^16, Orn^21)lac]ADM(14-52)]	21	> 1000
GGKRFGTETVQKLAHQIYQFTDKDKDNVAPRSKISPQGY-NH2 (lactam 3-8; N-terminus assumed; SMILES CC[C@H](C)[C@H](NC(=O)[C@H](CCC(N)=O)NC(=O)[C@H](Cc1c[nH]cn1)NC(=O)[C@H](C)NC(=O)[C@H](CC(C)C)NC(=O)[C@H](CCCCN)NC(=O)[C@H](CCC(N)=O)NC(=O)[C@@H](NC(=O)[C@@H](NC(=O)[C@@H]1CCC(=O)NCCCC[C@H](NC(=O)CNC(=O)CN)C(=O)N[C@@H](CCCNC(=N)N)C(=O)N[C@@H](Cc2ccccc2)C(=O)NCC(=O)N[C@@H]([C@@H](C)O)C(=O)N1)[C@@H](C)O)C(C)C)C(=O)N[C@@H](Cc1ccc(O)cc1)C(=O)N[C@@H](CCC(N)=O)C(=O)N[C@@H](Cc1ccccc1)C(=O)N[C@H](C(=O)N[C@@H](CC(=O)O)C(=O)N[C@@H](CCCCN)C(=O)N[C@@H](CC(=O)O)C(=O)N[C@@H](CCCCN)C(=O)N[C@@H](CC(=O)O)C(=O)N[C@@H](CC(N)=O)C(=O)N[C@H](C(=O)N[C@@H](C)C(=O)N1CCC[C@H]1C(=O)N[C@@H](CCCNC(=N)N)C(=O)N[C@@H](CO)C(=O)N[C@@H](CCCCN)C(=O)N[C@H](C(=O)N[C@@H](CO)C(=O)N1CCC[C@H]1C(=O)N[C@@H](CCC(N)=O)C(=O)NCC(=O)N[C@@H](Cc1ccc(O)cc1)C(N)=O)[C@@H](C)CC)C(C)C)[C@@H](C)O) [[G^14, (K^16, E^21)lac]ADM(14-52)]	> 1000	> 1000
GGCRFGTXTVQKLAHQIYQFTDKDKDNVAPRSKISPQGY (positions 16 and 21 (residues 3 and 8 of the letters) together are cystathionine (C^16→U^21, thioether disulfide bond mimetic); X stands for the printed U at 21; C-terminal amide) [[G^14, (C^16→U^21)]ADM(14-52)]	3.3	0.07
GGXRFGTCTVQKLAHQIYQFTDKDKDNVAPRSKISPQGY (positions 16 and 21 (residues 3 and 8 of the letters) together are cystathionine (U^16→C^21, thioether disulfide bond mimetic); X stands for the printed U at 16; C-terminal amide) [[G^14, (U^16→C^21)]ADM(14-52)]	6.8	1.54
GGXRFGTXTVQKLAHQIYQFTDKDKDNVAPRSKISPQGY (positions 16 and 21 (residues 3 and 8 of the letters) together are 2,7-diaminosuberic acid (U^16→U^21, biscarba disulfide bond mimetic); X stands for the printed U; C-terminal amide) [[G^14, (U^16→U^21)]ADM(14-52)]	> 1000	> 1000
K(Palmitoyl)GKRFGTETVQKLAHQIYQFTDKDKDNVAPRSKISPQGY-NH2 (lactam 3-8; N-terminus assumed; SMILES CCCCCCCCCCCCCCCC(=O)NCCCC[C@H](N)C(=O)NCC(=O)N[C@H]1CCCCNC(=O)CC[C@@H](C(=O)N[C@H](C(=O)N[C@H](C(=O)N[C@@H](CCC(N)=O)C(=O)N[C@@H](CCCCN)C(=O)N[C@@H](CC(C)C)C(=O)N[C@@H](C)C(=O)N[C@@H](Cc2c[nH]cn2)C(=O)N[C@@H](CCC(N)=O)C(=O)N[C@H](C(=O)N[C@@H](Cc2ccc(O)cc2)C(=O)N[C@@H](CCC(N)=O)C(=O)N[C@@H](Cc2ccccc2)C(=O)N[C@H](C(=O)N[C@@H](CC(=O)O)C(=O)N[C@@H](CCCCN)C(=O)N[C@@H](CC(=O)O)C(=O)N[C@@H](CCCCN)C(=O)N[C@@H](CC(=O)O)C(=O)N[C@@H](CC(N)=O)C(=O)N[C@H](C(=O)N[C@@H](C)C(=O)N2CCC[C@H]2C(=O)N[C@@H](CCCNC(=N)N)C(=O)N[C@@H](CO)C(=O)N[C@@H](CCCCN)C(=O)N[C@H](C(=O)N[C@@H](CO)C(=O)N2CCC[C@H]2C(=O)N[C@@H](CCC(N)=O)C(=O)NCC(=O)N[C@@H](Cc2ccc(O)cc2)C(N)=O)[C@@H](C)CC)C(C)C)[C@@H](C)O)[C@@H](C)CC)C(C)C)[C@@H](C)O)NC(=O)[C@H]([C@@H](C)O)NC(=O)CNC(=O)[C@H](Cc2ccccc2)NC(=O)[C@H](CCCNC(=N)N)NC1=O) [[K^14(PAM), (K^16,E^21)lac]ADM(14-52)]	156	> 1000
K(Palmitoyl)GERFGTKTVQKLAHQIYQFTDKDKDNVAPRSKISPQGY-NH2 (lactam 3-8; N-terminus assumed; SMILES CCCCCCCCCCCCCCCC(=O)NCCCC[C@H](N)C(=O)NCC(=O)N[C@H]1CCC(=O)NCCCC[C@@H](C(=O)N[C@H](C(=O)N[C@H](C(=O)N[C@@H](CCC(N)=O)C(=O)N[C@@H](CCCCN)C(=O)N[C@@H](CC(C)C)C(=O)N[C@@H](C)C(=O)N[C@@H](Cc2c[nH]cn2)C(=O)N[C@@H](CCC(N)=O)C(=O)N[C@H](C(=O)N[C@@H](Cc2ccc(O)cc2)C(=O)N[C@@H](CCC(N)=O)C(=O)N[C@@H](Cc2ccccc2)C(=O)N[C@H](C(=O)N[C@@H](CC(=O)O)C(=O)N[C@@H](CCCCN)C(=O)N[C@@H](CC(=O)O)C(=O)N[C@@H](CCCCN)C(=O)N[C@@H](CC(=O)O)C(=O)N[C@@H](CC(N)=O)C(=O)N[C@H](C(=O)N[C@@H](C)C(=O)N2CCC[C@H]2C(=O)N[C@@H](CCCNC(=N)N)C(=O)N[C@@H](CO)C(=O)N[C@@H](CCCCN)C(=O)N[C@H](C(=O)N[C@@H](CO)C(=O)N2CCC[C@H]2C(=O)N[C@@H](CCC(N)=O)C(=O)NCC(=O)N[C@@H](Cc2ccc(O)cc2)C(N)=O)[C@@H](C)CC)C(C)C)[C@@H](C)O)[C@@H](C)CC)C(C)C)[C@@H](C)O)NC(=O)[C@H]([C@@H](C)O)NC(=O)CNC(=O)[C@H](Cc2ccccc2)NC(=O)[C@H](CCCNC(=N)N)NC1=O) [[K^14(PAM), (E^16, K^21)lac]ADM(14-52)]	29	0.81
K(Palmitoyl)GERFGTKTVQKLAHQIYQFTDKDKDNVAPRSK[NMeI]SPQGY-NH2 (lactam 3-8) [[K^14(PAM), (E^16,K^21)lac, N-Me-I^47]ADM(14-52)]	150	32
K(Palmitoyl)G[Dap]RFGTETVQKLAHQIYQFTDKDKDNVAPRSKISPQGY-NH2 (lactam 3-8; also: acetate salt) [[K^14(PAM), (Dpr^16, E^21)lac]ADM(14-52)]	2	22
